Test results taken from patent publication US20140134169A1, “Methods of Treating Ovarian Cancer with Dll4 Antagonists” (Regeneron Pharmaceuticals, Inc., priority 2012, published 2014).

Tests used:
[1] = system: human A549 tumor cells (non-small cell lung cancer); assay: Growth of human A549 tumors implanted in humanized Dll4 SCID mice; assay type: in vivo; settings: REGN421 2 mg/kg sc (6 mg/kg total)
Procedure: Tumor growth delay, TGD, was assessed as the difference in days between treated (T) versus control (C) tumors when each cohort reached a specified tumor size. The predetermined tumor size for this experiment was 600 mm^3.
Each mouse was implanted subcutaneously (sc) with 5×10^6 human A549 tumor cells (non-small cell lung cancer or “NSCLC”). […] A total of 36 mice were divided into 6 groups (n=6 per cohort). The first group was treated sc with hFc at 2 mg/kg; the second group was treated sc with REGN421 at 2 mg/kg; the third and fourth groups were treated ip with cisplatin at 2.5 and 4.5 mg/kg, respectively; the fifth group was treated sc with REGN421 at 2 mg/kg and ip with cisplatin at 2.5 mg/kg; and the sixth group was treated sc with REGN421 at 2 mg/kg and ip with cisplatin at 4.5 mg/kg. REGN421 was administered every 3-4 days starting on day 29 and mice received three doses total. Cisplatin was administered every 24 hours starting on day 29 and mice received two doses total.
To assess the effects of REGN421 and cisplatin as single agents or in combination we measured tumor size (volume), beginning three days before the initial REGN421 treatment, on the day of each agent treatment (days 29, 30, 33, 36) and thereafter every 3-4 days until tumors reached ˜600 mm^3 in size.

human HCT116 tumor cells = assay: Growth of human HCT116 tumors in humanized Dll4 SCID mice (irinotecan study); assay type: in vivo; settings: REGN421 2 mg/kg sc (6 mg/kg total)
Procedure: Each mouse was implanted subcutaneously (sc) with 5×10^6 human HCT116 tumor cells. […] The mice were then treated with hFc, REGN421, irinotecan or combination of REGN421 and irinotecan. A total of 30 mice were divided into 6 groups (n=5 per cohort). The first group was treated sc with hFc at 2 mg/kg; the second group was treated sc with REGN421 at 2 mg/kg; the third and fourth groups were treated ip with irinotecan at 7.5 and 25 mg/kg, respectively; the fifth group was treated sc with REGN421 at 2 mg/kg and ip with irinotecan at 7.5 mg/kg; and the sixth group was treated sc with REGN421 at 2 mg/kg and ip with irinotecan at 25 mg/kg. REGN421 was administered every 3-4 days starting on day 15 and mice received three doses total. Irinotecan was administered every 3-4 days starting on day 15 and mice received three doses total.
To assess the effects of REGN421 and irinotecan as single agents or in combination treatments, the changes in tumor size (volume) are measured, starting three days before the initial REGN421 treatment, and then on the day of each agent treatment (days 15, 19, 22) and thereafter every 3-4 days until tumors reach ˜600 mm^3 in size. In vivo tumor size is calculated using the formula (length×width^2)/2.

[2] = Phase I pharmacokinetics, single 30-min IV infusion, ELISA; assay type: in vivo, human
Procedure: REGN421 is currently being studied in a first-in-human trial. The primary objective of the study is to determine the recommended dose of REGN421 for future efficacy trials. The secondary objectives are to characterize the drug safety profile, its pharmacokinetics, immunogenicity, and pharmacodynamics, as well as preliminary evidence of efficacy. In this study, anti-hDll4 antibody REGN421 is administered intravenously every 3 weeks to patients whose cancer has progressed on conventional therapy. The study design follows standard methodology for dose escalation and definition of dose-limiting toxicity. To date, 7 patients have been treated at 0.25 mg/kg/dose every three weeks, and 6 patients have been treated at 0.50 mg/kg/dose every three weeks. For the pharmacokinetic study, blood samples were taken at pre-dose, 0 hour, and post-dose 1, 2, 4 and 8 hours on Day 1, followed by Days 2, 3, 4, 8 and 15 of Cycle 1; and pre-dose, 0 hour on Day 1 of Cycles 2, and post-treatment follow-up on Days 15, 30 and 60. Plasma/serum levels of REGN421 in the samples are measured by ELISA with an upper limit of quantification of 2.5 μg/mL and a lower limit of quantification of 0.039 μg/mL in the undiluted serum sample. The study is ongoing with the intent to administer higher doses, defined in the protocol as 1, 2, 4, and 7 mg/kg/dose.
The currently available data showing plasma pharmacokinetic parameters following single 30-min. Cmax: Maximum serum concentration of the drug; Tlast: Time to the last quantifiable concentration of the drug; Clast: Last quantifiable concentration of the drug; AUClast: Area under curve up to the last concentration of the drug; AUC: Total area under the curve (i.e., drug exposure); t1/2Z: Terminal half life; Vss: Volume of distribution at steady state; CL: Drug clearance rate. Values are: mean, (CV %), and [range] (a: median [range]).

B1: REGN421 (antibody, V domains shown)
VH: QVQLVESGGGVVQPGRSLRLSCAASGFTFSSYGMHWVRQAPGKGLEWVSFLWYDGTNKNYVESVKGRFTISRDNSKNMLYLEMNSLRAEDTAVYYCARDHDFRSGYEGWFDPWGQGTLVTVSS
VL: EIVLTQSPATLSLSPGERATLSCRASQSVSSYLAWYQQKPGQAPRLLIYDASNRATGIPARFSGSGSGTDFTLTISSLEPEDFAVYYCQHRSNWPPTFGGGTKVEIK
[1]
  TGD: 8 days
  TGI (%) at Day 57: 54%
Human HCT116 tumor cells
  TGD: 9 days
  TGI(%) at Day 39: 81.3%
[2]; 0.25 mg/kg IV, n = 7, mean
  AUC: 489 µg·h/mL
  AUClast: 452 µg·h/mL
  CL: 0.0473 L/h
  Cmax: 6270 ng/mL
  T1/2Z: 47.1 h
  Vss: 2.85 L
[2]; 0.25 mg/kg IV, n = 7, median
  Tlast: 170 h
[2]; 0.5 mg/kg IV, n = 2, mean
  AUC: 963 µg·h/mL
  AUClast: 759 µg·h/mL
  CL: 0.0355 L/h
  Clast: 2240 ng/mL
  Cmax: 9880 ng/mL
  T1/2Z: 92.3 h
  Vss: 3.64 L
[2]; 0.5 mg/kg IV, n = 2, median
  Tlast: 203 h
